Measurements as given in patent publication US20260274981A1 (VIB VZW, published 2026).

T1: cynomolgus TfR overexpressed on CHO cells (cynomolgus monkey, UniProt Q5RDH6 1-760 (Pongo abelii entry))
T1 construct: construct is TfR followed by an HA tag and IRES-GFP; also called cynomolgus monkey TfR1; NHP TfR
T1 chain: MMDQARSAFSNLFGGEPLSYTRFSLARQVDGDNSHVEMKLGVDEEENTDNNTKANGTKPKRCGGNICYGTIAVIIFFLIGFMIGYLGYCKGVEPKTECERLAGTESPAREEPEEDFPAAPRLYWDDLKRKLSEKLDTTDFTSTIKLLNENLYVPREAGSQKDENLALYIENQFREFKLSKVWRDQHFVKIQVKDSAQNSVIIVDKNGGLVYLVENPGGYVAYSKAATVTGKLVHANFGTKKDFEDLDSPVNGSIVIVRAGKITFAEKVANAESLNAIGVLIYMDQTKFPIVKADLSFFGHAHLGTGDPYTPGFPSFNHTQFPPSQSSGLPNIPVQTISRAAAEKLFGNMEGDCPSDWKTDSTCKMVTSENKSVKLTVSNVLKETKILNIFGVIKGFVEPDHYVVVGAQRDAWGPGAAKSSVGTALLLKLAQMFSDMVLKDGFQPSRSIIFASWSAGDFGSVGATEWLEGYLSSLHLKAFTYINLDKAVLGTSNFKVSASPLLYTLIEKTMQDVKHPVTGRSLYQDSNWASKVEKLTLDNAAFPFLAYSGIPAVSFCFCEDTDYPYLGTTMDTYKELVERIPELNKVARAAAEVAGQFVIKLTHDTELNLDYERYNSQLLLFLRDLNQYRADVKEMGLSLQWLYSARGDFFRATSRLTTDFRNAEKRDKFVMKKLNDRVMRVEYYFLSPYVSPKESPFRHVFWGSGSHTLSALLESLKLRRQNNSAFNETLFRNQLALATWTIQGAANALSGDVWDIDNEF

B1: BBB00515 (VHH)
VHH: QVQLQESGGGLVQAGGSLRLSCAASGSIFSINAMGWYRQAPGKQRELVAVITSGGSTIYADSVKGRFTISRDNAENTVYLQMNSLKPEDTAVYYCNAHVGLKVPTIQELSLGFGSWGQGTQVTVSS
notes: Lead VHH expressed in E. coli TG1 and purified by IMAC; detected with anti-FLAG antibody in flow cytometry; also called BBB00515 VHH; not shown: C-terminal 3xFlag/6xHis tag from expression vector pBDS119
B2: BBB00533 (VHH)
VHH: QVQLQESGGGSVQPGGSLRLSCTASGRTFNYAMGWFRQAPGKNREFVATIDWKDGSSYYLDSVRGRFTIERDDAKNTVYLQMNSLKPEDAAVYTCAVGDGDYCSTYTCAAEVEYDYWGQGTQVTVSS
notes: Lead VHH expressed in E. coli TG1 and purified by IMAC; detected with anti-FLAG antibody in flow cytometry; also called BBB00533 VHH; not shown: C-terminal 3xFlag/6xHis tag from expression vector pBDS119

Target: T1, cynomolgus TfR overexpressed on CHO …
Assay: flow cytometry on CHO cells overexpressing cynomolgus TfR (CHO-cynoTfR), VHH detected with anti-FLAG-iFluor647; median Flag-i647 intensity in total GFP cells
Experimental: Output libraries were screened with flow cytometry to find binders to human TfR overexpressing cells (FIG. 1A). […] Binding kinetics to recombinant human and cynomolgus TfR were further characterized with Surface Plasmon Resonance (SPR).
Periplasmic extracts diluted 1:10 in PBS 2% FBS, or a dilution range of different VHH or bispecific antibody concentrations prepared in PBS 2% FBS, were incubated with 0.1 million CHO cells overexpressing either the human, cynomolgus or mouse TfR for 30 min at 4° C. As control for background binding, periplasmic extracts, VHHs or bispecific antibodies were also incubated with 0.1 million CHO cells overexpressing GFP. Binding of VHHs was next resolved by a second step 30 min incubation at 4° C. with an anti-FLAG-iFluor647 antibody (A01811, Genscript) diluted 1:500 for screening and 1:250 for validation assays, or with anti-human IgG Fc-Alexa Fluor647 antibody (410714, BioLegend) diluted 1:200. […] Cells were fixed with 4% paraformaldehyde before being analyzed. Flp-In™-CHO™ cells used as unstained control and single stain controls were used to determine the cut-off point between background fluorescence and positive populations. […] The data was acquired with an Attune Nxt flow cytometer (Invitrogen) and analyzed by FCS Express 7 Research Edition.

Binder	EC50 (read off the curve)
B1	~8 nM
B2	~40 nM
